Data on 18 molecules can be found in PMC10544015 (Journal of Medicinal Chemistry, 2023).

Entries after “also recorded” stand apart in the source; their conditions may differ. Read-outs that look alike come from different tables or passages of the source. Bridge positions count the residues as written; N and C are the ends. Square brackets hold non-standard residues; d marks the D form. Triazole bridges read from a SMILES are 1,4-linked. Peptide text beside a SMILES is read from it. Lys(N3) = [N-]=[N+]=NCCCC[C@H](N)C(=O)O; Orn(N3) = [N-]=[N+]=NCCC[C@H](N)C(=O)O; Hpra = C#CCC[C@H](N)C(=O)O; Pra = C#CC[C@H](N)C(=O)O; Ahx = NCCCCCC(=O)O

One data set is described as follows: circular dichroism. The following applies: PBS (10 mM phosphate, 137 mM NaCl, 2.7 mM KCl); pH 7.4; rt °C; 100 uM.
Data set [1] has as its target T1, Panx1 channels (Homo sapiens, UniProt Q96RD7).
T1 construct: host or cells: EA.hy926 human endothelial cells
Nature of the data set: HOS-induced ATP release assay in EA.hy926 endothelial cells. Format: cell-based. On the procedure: Similar to B16-BL6 cells, a 2–3-fold enhancement of ATP release from EA.hy926 cells was observed upon HOS stimulation (Figure 7E). However, the absolute levels of ATP release were lower in these endothelial cells (around 300 vs 500–600 nM in B16-BL6 cells). As expected, Pbn reduced HOS-induced ATP release from EA.hy926 cells, albeit by a lower fraction than the one observed in B16-BL6 cells (Figure 7E vs7A). The reason for this different efficacy of Pbn is unknown but may be due to its nonspecific action on other ATP release channels or transporters,[68] of which the expression naturally varies among different cell types. […] The water-soluble double-stapled ^10Panx1 peptidomimetic SBL-PX1-206 reduced HOS-induced ATP release from EA.hy926 cells by about 25% at 12.5 μM. […] Stapled and double-stapled ^10Panx1 analogues were also not cytotoxic when tested at 100 and 12.5 μM in EA.hy926 cells (Supporting Information, Figure S8).
Triplicates were performed for each independent experiment.

Data set [2] deals with Panx1 channels (Mus musculus, UniProt Q9JIP4). Put plainly: HOS-induced ATP release assay in B16-BL6 cells. As to conditions: B16-BL6, read-out: % ATP release inhibition at 100µM (in B16-BL6 cells).
Chain of Panx1 channels (Mus musculus, UniProt Q9JIP4) (Q9JIP4 whole entry): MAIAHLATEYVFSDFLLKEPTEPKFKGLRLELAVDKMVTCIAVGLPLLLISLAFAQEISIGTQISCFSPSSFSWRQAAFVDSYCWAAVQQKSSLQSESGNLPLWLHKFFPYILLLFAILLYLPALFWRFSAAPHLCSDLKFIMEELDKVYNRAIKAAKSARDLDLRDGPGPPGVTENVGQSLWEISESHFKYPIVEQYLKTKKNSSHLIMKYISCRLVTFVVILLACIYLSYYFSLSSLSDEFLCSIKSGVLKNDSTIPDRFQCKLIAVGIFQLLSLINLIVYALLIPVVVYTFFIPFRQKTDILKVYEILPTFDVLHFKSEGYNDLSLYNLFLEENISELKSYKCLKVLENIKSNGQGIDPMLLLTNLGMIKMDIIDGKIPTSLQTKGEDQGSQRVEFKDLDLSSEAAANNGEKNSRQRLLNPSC
In a further data set the test system is B16-BL6 cells. Put plainly: LDH cytotoxicity assay in B16-BL6 cells. Format: cell-based, mouse. The following applies: peptides 100 to 6.25 µM, Pbn 2.5 mM, HOS solution.
The nature of a further data set: human plasma. The following applies: 37 °C.

T1 sequence (Q96RD7 whole entry): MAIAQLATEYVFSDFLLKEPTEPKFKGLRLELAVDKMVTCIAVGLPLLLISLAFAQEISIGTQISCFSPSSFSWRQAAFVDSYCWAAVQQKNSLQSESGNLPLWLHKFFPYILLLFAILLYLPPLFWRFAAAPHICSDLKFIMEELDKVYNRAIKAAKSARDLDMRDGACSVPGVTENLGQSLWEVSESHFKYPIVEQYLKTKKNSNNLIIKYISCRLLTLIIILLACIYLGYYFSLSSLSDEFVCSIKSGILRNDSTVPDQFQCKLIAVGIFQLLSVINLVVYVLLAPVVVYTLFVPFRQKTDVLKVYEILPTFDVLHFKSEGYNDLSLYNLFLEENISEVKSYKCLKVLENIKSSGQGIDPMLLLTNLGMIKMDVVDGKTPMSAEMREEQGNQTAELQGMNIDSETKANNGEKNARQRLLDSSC

As to `CC(=O)N[C@@H](CO)C(=O)N[C@@H](Cc1c[nH]c2ccccc12)C(=O)N[C@@H](CCCNC(=N)N)C(=O)N[C@@H](CCC(N)=O)C(=O)N[C@@H](C)C(=O)N[C@@H]1Cc2cn(nn2)CCCC[C@@H](C(=O)N[C@@H](Cc2ccc(O)cc2)C(N)=O)NC(=O)[C@H](CC(=O)O)NC(=O)[C@H](C(C)C)NC(=O)[C@H](Cc2ccccc2)NC1=O`, the helicity in the data set “circular dichroism” stood at 7%.

In the data set “circular dichroism”, `CC(=O)N[C@@H]1Cc2cn(nn2)CCCC[C@@H](C(=O)N[C@@H](C)C(=O)N[C@@H](Cc2ccccc2)C(=O)N[C@H](C(=O)N[C@@H](CC(=O)O)C(=O)N[C@@H](CO)C(=O)N[C@@H](Cc2ccc(O)cc2)C(N)=O)C(C)C)NC(=O)[C@H](CCC(N)=O)NC(=O)[C@H](CCCNC(=N)N)NC(=O)[C@H](Cc2c[nH]c3ccccc23)NC1=O` had a helicity of 18%.

`CC(=O)N[C@@H](CO)C(=O)N[C@@H](Cc1c[nH]c2ccccc12)C(=O)N[C@@H](CCCNC(=N)N)C(=O)N[C@@H](CCC(N)=O)C(=O)N[C@@H](C)C(=O)N[C@@H](C)C(=O)N[C@@H](Cc1ccccc1)C(=O)N[C@H]1Cc2cn(nn2)CCCC[C@@H](C(N)=O)NC(=O)[C@H](Cc2ccc(O)cc2)NC(=O)[C@H](CO)NC(=O)[C@H](CC(=O)O)NC1=O` (Ac-SWRQAAF[Pra]DSY[Lys(N3)]-NH2; triazole 8-12): the helicity in “circular dichroism” was 30%.

Turning to `CC(=O)N[C@@H](CO)C(=O)N[C@@H](Cc1c[nH]c2ccccc12)C(=O)N[C@@H](CCCNC(=N)N)C(=O)N[C@@H](CCC(N)=O)C(=O)N[C@@H](C)C(=O)N[C@@H](C)C(=O)N[C@@H](Cc1ccccc1)C(=O)N[C@H]1Cc2cn(nn2)CCC[C@@H](C(N)=O)NC(=O)[C@H](Cc2ccc(O)cc2)NC(=O)[C@H](CO)NC(=O)[C@H](CC(=O)O)NC1=O` (Ac-SWRQAAF[Pra]DSY[Orn(N3)]-NH2; triazole 8-12), the helicity in “circular dichroism” stood at 12%.

Consider `CC(=O)N[C@@H](CO)C(=O)N[C@@H](Cc1c[nH]c2ccccc12)C(=O)N[C@@H](CCCNC(=N)N)C(=O)N[C@@H](CCC(N)=O)C(=O)N[C@@H](C)C(=O)N[C@@H](C)C(=O)N[C@H]1Cc2cn(nn2)CCCC[C@@H](C(N)=O)NC(=O)[C@H](CO)NC(=O)[C@H](CC(=O)O)NC(=O)[C@H](C(C)C)NC1=O` (Ac-SWRQAA[Pra]VDS[Lys(N3)]-NH2; triazole 7-11), for which the helicity in the data set “circular dichroism” came to 37%.

In turn, `CC(=O)N[C@@H](CO)C(=O)N[C@@H](Cc1c[nH]c2ccccc12)C(=O)N[C@@H](CCCNC(=N)N)C(=O)N[C@@H](CCC(N)=O)C(=O)N[C@@H](C)C(=O)N[C@@H](C)C(=O)N[C@H]1Cc2cn(nn2)CCC[C@@H](C(N)=O)NC(=O)[C@H](CO)NC(=O)[C@H](CC(=O)O)NC(=O)[C@H](C(C)C)NC1=O` (Ac-SWRQAA[Pra]VDS[Orn(N3)]-NH2; triazole 7-11) displayed a helicity in the data set “circular dichroism” of 6%.

Take `CC(=O)N[C@@H](CO)C(=O)N[C@@H](Cc1c[nH]c2ccccc12)C(=O)N[C@@H](CCCNC(=N)N)C(=O)N[C@@H](CCC(N)=O)C(=O)N[C@@H](C)C(=O)N[C@H]1CCc2cn(nn2)CCCC[C@@H](C(=O)N[C@@H](Cc2ccc(O)cc2)C(N)=O)NC(=O)[C@H](CC(=O)O)NC(=O)[C@H](C(C)C)NC(=O)[C@H](Cc2ccccc2)NC1=O` (Ac-SWRQA[Hpra]FVD[Lys(N3)]Y-NH2; triazole 6-10): the helicity in the data set “circular dichroism” came to 28%.

For the molecule `CC(=O)N[C@@H](CO)C(=O)N[C@@H](Cc1c[nH]c2ccccc12)C(=O)N[C@@H](CCCNC(=N)N)C(=O)N[C@@H](CCC(N)=O)C(=O)N[C@@H](C)C(=O)N[C@H]1CCCCn2cc(nn2)C[C@@H](C(=O)N[C@@H](Cc2ccc(O)cc2)C(N)=O)NC(=O)[C@H](CC(=O)O)NC(=O)[C@H](C(C)C)NC(=O)[C@H](Cc2ccccc2)NC1=O` (Ac-SWRQA[Lys(N3)]FVD[Pra]Y-NH2; triazole 6-10), in “circular dichroism”, the helicity turned out to be 32%.

For `CC(=O)N[C@@H](CO)C(=O)N[C@@H](Cc1c[nH]c2ccccc12)C(=O)N[C@@H](CCCNC(=N)N)C(=O)N[C@@H](CCC(N)=O)C(=O)N[C@@H](C)C(=O)N[C@H]1Cc2cn(nn2)CCC[C@@H](C(=O)N[C@@H](Cc2ccc(O)cc2)C(N)=O)NC(=O)[C@H](CC(=O)O)NC(=O)[C@H](C(C)C)NC(=O)[C@H](Cc2ccccc2)NC1=O` (Ac-SWRQA[Pra]FVD[Orn(N3)]Y-NH2; triazole 6-10), in “circular dichroism”, the helicity is 17%.

On to `CC(=O)N[C@H]1CCc2cn(nn2)CCCC[C@@H](C(=O)N[C@@H](C)C(=O)N[C@@H](Cc2ccccc2)C(=O)N[C@H](C(=O)N[C@@H](CC(=O)O)C(=O)N[C@@H](CO)C(=O)N[C@@H](Cc2ccc(O)cc2)C(N)=O)C(C)C)NC(=O)[C@H](CCC(N)=O)NC(=O)[C@H](CCCNC(=N)N)NC(=O)[C@H](Cc2c[nH]c3ccccc23)NC1=O` (Ac-[Hpra]WRQ[Lys(N3)]AFVDSY-NH2; triazole 1-5), for which the helicity in “circular dichroism” was determined as 26%.

In the case of `CC(=O)N[C@H]1CCCCn2cc(nn2)C[C@@H](C(=O)N[C@@H](C)C(=O)N[C@@H](Cc2ccccc2)C(=O)N[C@H](C(=O)N[C@@H](CC(=O)O)C(=O)N[C@@H](CO)C(=O)N[C@@H](Cc2ccc(O)cc2)C(N)=O)C(C)C)NC(=O)[C@H](CCC(N)=O)NC(=O)[C@H](CCCNC(=N)N)NC(=O)[C@H](Cc2c[nH]c3ccccc23)NC1=O` (Ac-[Lys(N3)]WRQ[Pra]AFVDSY-NH2; triazole 1-5), the helicity in “circular dichroism” was found to be 20%.

`CC(=O)N[C@H]1Cc2cn(nn2)CCC[C@@H](C(=O)N[C@@H](C)C(=O)N[C@@H](Cc2ccccc2)C(=O)N[C@H](C(=O)N[C@@H](CC(=O)O)C(=O)N[C@@H](CO)C(=O)N[C@@H](Cc2ccc(O)cc2)C(N)=O)C(C)C)NC(=O)[C@H](CCC(N)=O)NC(=O)[C@H](CCCNC(=N)N)NC(=O)[C@H](Cc2c[nH]c3ccccc23)NC1=O` (Ac-[Pra]WRQ[Orn(N3)]AFVDSY-NH2; triazole 1-5): the helicity in “circular dichroism” was 14%.

One may read the inhibition as how much of the control response was suppressed. In the case of `CC(C)[C@H](NC(=O)[C@H](Cc1ccccc1)NC(=O)[C@H](C)NC(=O)[C@H](C)NC(=O)[C@H](CCC(N)=O)NC(=O)[C@H](CCCNC(=N)N)NC(=O)[C@H](Cc1c[nH]c2ccccc12)NC(=O)CCCCCNC(=O)[C@@H](N)CCCCN)C(=O)N[C@@H](CC(=O)O)C(=O)N[C@@H](CO)C(=O)N[C@@H](Cc1ccc(O)cc1)C(=O)O` [SBL-PX1-214] (H-K[Ahx]WRQAAFVDSY-OH), at Panx1 channels [1] (EA.hy 926, 100 µM, 30 min HOS stimulation, read-out: % ATP release inhibition at 100µM (in EA.hy926 cells)), the inhibition at 100 µM came to 30%.

As to `CC(C)[C@H](NC(=O)[C@H](Cc1ccccc1)NC(=O)[C@H](C)NC(=O)[C@H](C)NC(=O)[C@H](CCC(N)=O)NC(=O)[C@H](CCCNC(=N)N)NC(=O)[C@@H](N)Cc1c[nH]c2ccccc12)C(=O)N[C@@H](CC(=O)O)C(=O)N[C@@H](CO)C(=O)N[C@@H](Cc1ccc(O)cc1)C(=O)O` [^10Panx1, WRQAAFVDSY] (H-WRQAAFVDSY-OH), the inhibition at 100 µM on Panx1 channels [1] (EA.hy 926, read-out: % ATP release inhibition at 100µM (in EA.hy926 cells)) came out at 24%; on Panx1 channels [2], 19%. Further, in the data set with B16-BL6 cells, the “cytotoxicity (extracellular LDH)” value is reported as “no cytotoxicity”.

Turning to Ac-*WRQ*AFVDSY-NH2, in “human plasma” (up to 24 h), the cleaved bond entry was “A-F, major; also recorded: D-S, major” and the not cleaved result is recorded as “amide bonds within the macrocycle remained intact for several hours”.

For Ac-SWRQA*FVD*Y-NH2, the cleaved bond result in the data set “human plasma” (up to 24 h) is reported as “R-Q, major; also recorded: A-*, major”.

As to “R-*WRQ**FVD*Y-NH2 (m = 1; n = 4; R = K-Ahx-)”, the cleaved bond entry in “human plasma” (up to 24 h) is on record as “K-Ahx, major, 8 hours”.

Take WRQAAFVDSY: the cleaved bond result in the data set “human plasma” (cited from earlier work) is reported as “Trp74-Arg75; also recorded: Ala78-Phe79”.
